Experimental data reported in the supplement of paper PMC6757056.
± gives the standard deviation of the averaged measurements.

B1: library; a variant is named by its letters at N, in order (parent)
chain: GCUGUCACCGGUGUAUUACCCUAGUGGUCGACCGGUCUGAUGAGUCUNNNNNNAGACGAAACAGC

Tests used:
[1] = variants of: B1; test: normalized RNA/DNA level with ligand (relative to sTRSVctl = 100) (log10 (% of sTRSVctl)); ligand: hypoxanthine (xanthine aptamer); higher = less ribozyme self-cleavage, higher mRNA level; conditions: ligand concentration (+) RNA-Seq: 5 mM, HEK293T, reporter: mCherry (pCS4076), ligand present: yes
Summary of the method: (§1)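 Library plasmids encoding reporter-linked ribozyme switches (mCherry, or eGFP for some folinic acid experiments) were transfected into HEK293T at 4 µg per 6-well well. Ligand, when used, was added 1 h before transfection. Total RNA was extracted with EDTA 72 h later, then reverse-transcribed, amplified, barcoded and sequenced. RNA level was RNA reads over DNA reads, divided by a spiked-in non-cleaving control (or the top 25 sequences), ×100, log10; only sequences with ≥100 DNA reads were kept.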

[2] = variants of: B1; test: normalized RNA/DNA level without ligand (relative to sTRSVctl = 100) (log10 (% of sTRSVctl)); ligand: hypoxanthine (xanthine aptamer); higher = less ribozyme self-cleavage, higher mRNA level; conditions: HEK293T, reporter: mCherry (pCS4076), ligand present: no
Summary of the method: as §1

GCUGUCACCGGUGUAUUACCCUAGUGGUCGACCGGUCUGAUGAGUCUCUUUGAAGACGAAACAGC
normalized RNA/DNA level with ligand (log10) [1]: 1.97 ± 0.035 | normalized RNA/DNA level without ligand (log10) [2]: 1.88 ± 0.0019

GCUGUCACCGGUGUAUUACCCUAGUGGUCGACCGGUCUGAUGAGUCUGUUUGAAGACGAAACAGC
normalized RNA/DNA level with ligand (log10) [1]: 1.97 ± 0.0084 | normalized RNA/DNA level without ligand (log10) [2]: 1.75 ± 0.032

GCUGUCACCGGUGUAUUACCCUAGUGGUCGACCGGUCUGAUGAGUCUCUUUGCAGACGAAACAGC
normalized RNA/DNA level with ligand (log10) [1]: 1.92 ± 0.026 | normalized RNA/DNA level without ligand (log10) [2]: 1.88 ± 0.06

GCUGUCACCGGUGUAUUACCCUAGUGGUCGACCGGUCUGAUGAGUCUGUUUGCAGACGAAACAGC
normalized RNA/DNA level with ligand (log10) [1]: 1.922 ± 0.016 | normalized RNA/DNA level without ligand (log10) [2]: 1.61 ± 0.062

GCUGUCACCGGUGUAUUACCCUAGUGGUCGACCGGUCUGAUGAGUCUUUUUGCAGACGAAACAGC
normalized RNA/DNA level with ligand (log10) [1]: 1.94 ± 0.048 | normalized RNA/DNA level without ligand (log10) [2]: 1.889 ± 0.0056

GCUGUCACCGGUGUAUUACCCUAGUGGUCGACCGGUCUGAUGAGUCUAUUUGGAGACGAAACAGC
normalized RNA/DNA level with ligand (log10) [1]: 1.81 ± 0.03 | normalized RNA/DNA level without ligand (log10) [2]: 1.39 ± 0.12

GCUGUCACCGGUGUAUUACCCUAGUGGUCGACCGGUCUGAUGAGUCUCUUUGGAGACGAAACAGC
normalized RNA/DNA level with ligand (log10) [1]: 1.88 ± 0.032 | normalized RNA/DNA level without ligand (log10) [2]: 1.58 ± 0.043

GCUGUCACCGGUGUAUUACCCUAGUGGUCGACCGGUCUGAUGAGUCUUUUUGGAGACGAAACAGC
normalized RNA/DNA level with ligand (log10) [1]: 1.898 ± 0.0019 | normalized RNA/DNA level without ligand (log10) [2]: 1.738 ± 0.007

GCUGUCACCGGUGUAUUACCCUAGUGGUCGACCGGUCUGAUGAGUCUCUUUGUAGACGAAACAGC
normalized RNA/DNA level with ligand (log10) [1]: 1.93 ± 0.021 | normalized RNA/DNA level without ligand (log10) [2]: 1.975 ± 0.013

GCUGUCACCGGUGUAUUACCCUAGUGGUCGACCGGUCUGAUGAGUCUGUUUGUAGACGAAACAGC
normalized RNA/DNA level with ligand (log10) [1]: 1.95 ± 0.03 | normalized RNA/DNA level without ligand (log10) [2]: 1.885 ± 0.01

GCUGUCACCGGUGUAUUACCCUAGUGGUCGACCGGUCUGAUGAGUCUUUUUGUAGACGAAACAGC
normalized RNA/DNA level with ligand (log10) [1]: 1.94 ± 0.037 | normalized RNA/DNA level without ligand (log10) [2]: 1.842 ± 0.011

GCUGUCACCGGUGUAUUACCCUAGUGGUCGACCGGUCUGAUGAGUCUAUUUUAAGACGAAACAGC
normalized RNA/DNA level with ligand (log10) [1]: 1.9 ± 0.029 | normalized RNA/DNA level without ligand (log10) [2]: 1.83 ± 0.037

GCUGUCACCGGUGUAUUACCCUAGUGGUCGACCGGUCUGAUGAGUCUGUUUUAAGACGAAACAGC
normalized RNA/DNA level with ligand (log10) [1]: 1.93 ± 0.025 | normalized RNA/DNA level without ligand (log10) [2]: 1.865 ± 0.0019

GCUGUCACCGGUGUAUUACCCUAGUGGUCGACCGGUCUGAUGAGUCUUUUUUAAGACGAAACAGC
normalized RNA/DNA level with ligand (log10) [1]: 1.99 ± 0.064 | normalized RNA/DNA level without ligand (log10) [2]: 1.93 ± 0.045

GCUGUCACCGGUGUAUUACCCUAGUGGUCGACCGGUCUGAUGAGUCUAUUUUCAGACGAAACAGC
normalized RNA/DNA level with ligand (log10) [1]: 1.97 ± 0.056 | normalized RNA/DNA level without ligand (log10) [2]: 1.925 ± 0.003

GCUGUCACCGGUGUAUUACCCUAGUGGUCGACCGGUCUGAUGAGUCUCUUUUCAGACGAAACAGC
normalized RNA/DNA level with ligand (log10) [1]: 1.95 ± 0.06 | normalized RNA/DNA level without ligand (log10) [2]: 1.92 ± 0.077

GCUGUCACCGGUGUAUUACCCUAGUGGUCGACCGGUCUGAUGAGUCUUUUUUCAGACGAAACAGC
normalized RNA/DNA level with ligand (log10) [1]: 2.02 ± 0.043 | normalized RNA/DNA level without ligand (log10) [2]: 1.99 ± 0.02

GCUGUCACCGGUGUAUUACCCUAGUGGUCGACCGGUCUGAUGAGUCUCUUUUGAGACGAAACAGC
normalized RNA/DNA level with ligand (log10) [1]: 1.95 ± 0.042 | normalized RNA/DNA level without ligand (log10) [2]: 1.89 ± 0.078

GCUGUCACCGGUGUAUUACCCUAGUGGUCGACCGGUCUGAUGAGUCUUUUUUGAGACGAAACAGC
normalized RNA/DNA level with ligand (log10) [1]: 1.98 ± 0.025 | normalized RNA/DNA level without ligand (log10) [2]: 1.83 ± 0.064

GCUGUCACCGGUGUAUUACCCUAGUGGUCGACCGGUCUGAUGAGUCUCUUUUUAGACGAAACAGC
normalized RNA/DNA level with ligand (log10) [1]: 1.95 ± 0.058 | normalized RNA/DNA level without ligand (log10) [2]: 1.806 ± 0.012

GCUGUCACCGGUGUAUUACCCUAGUGGUCGACCGGUCUGAUGAGUCUUUUUUUAGACGAAACAGC
normalized RNA/DNA level with ligand (log10) [1]: 1.973 ± 0.01 | normalized RNA/DNA level without ligand (log10) [2]: 1.973 ± 0.017
